Measurements from patent publication US12491324B2, “Droplet device with inertial filtering” (PNEUMA RESPIRATORY, INC., priority 2016, dated 2025).
Where “and” joins values, the source holds several entries; their conditions need not be identical. Identical values can stand only once.

How the values were obtained:
Assay type in all cases: physicochemical
[1] = Gel electrophoresis of active agent after droplet generation; conditions: 'will show'
Excerpt: Gel Electrophoresis: To determine the stability of active agent after droplet generation, the generated stream of droplets including the active agent is collected and the molecular weight of the active agent is verified using gel electrophoresis.

[2] = Enbrel stability after aerosol generation, size exclusion chromatography (SEC)
Excerpt: Size Exclusion Chromatography (SEC): Alternately, to determine the stability of active agent after droplet generation, the generated stream of droplets including the active agent may be collected and […] may be employed to monitor for any changes in large molecule aggregation and protein fragment content. Soluble protein aggregates and protein fragment content may be calculated by comparing respective peak area under the SEC-HPLC curve of dispensed protein solutions with controls (solutions remaining in the device reservoir). Drug solutions for testing include Enbrel, (ENBREL® single-use prefilled syringes in 25 mg (0.51 mL of a 50 mg/mL solution of etanercept), and insulin, (Humalog, 200 units/ml, 3 ml […] is performed with a YarraTM 3 μm SEC-2000 LC column 300×7.8 mm, SecurityGuard cartridge kit and SecurityGuard cartridges GFC-2000, 4×3 mm ID. Fifty microliters of Enbrel from the syringe (ENBREL® single-use prefilled syringes in 25 mg/0.51 mL of a 50 mg/mL solution of etanercept) is diluted (4:1) (4 parts, 200 mcl of the mobile phase buffer solution to 1 part, 50 mcl Enbrel from syringe). Fifty microliter of the diluted Enbrel is injected and separation was performed at a flow rate of 1.0 ml/min. The mobile phase buffer system included a PHOS. BUFF. SALINE. […] UV detection is performed at 280 nm. […] An ampule/cartridge is filled with either 0.20 ml of Enbrel® (50 mg/ml) diluted 4:1 (10 mg/ml) (4 parts (200 mcl) of PBS and 0.025% NaN3 and 1 part (50 mcl of Enbrel solution from the syringe). After 20 actuations and aerosolization, about 150 mcl of the aerosolized Enbrel solution is recovered and collected in the polypropylene tube located below the ejector mechanism. The control consists of the diluted Enbrel solution, 50 mcl of which is injected into the SEC column for analysis.

[3] = Anderson Cascade Impactor testing of droplet delivery device with Albuterol sulfate (Example B); conditions: Albuterol 0.5%, 28.3 lpm
Excerpt: FIGS. 21A-21E provide a summary of the test results.

[4] = Insulin stability after aerosol generation, size exclusion chromatography (SEC)
Excerpt: Size Exclusion Chromatography (SEC): Alternately, to determine the stability of active agent after droplet generation, the generated stream of droplets including the active agent may be collected and SEC-HPLIC may be employed to monitor for any changes in large molecule aggregation and protein fragment content. Soluble protein aggregates and protein fragment content may be calculated by comparing respective peak area under the SEC-HPLC curve of dispensed protein solutions with controls (solutions remaining in the device reservoir).
Drug solutions for testing include Enbrel, (ENBREL® single-use prefilled syringes in 25 mg (0.51 mL of a 50 mg/mL solution of etanercept), and insulin, (Humalog, 200 units/ml, 3 ml kwikpens)
Aerosol collection and SEC is performed in a similar fashion as for the Enbrel analysis and aerosol collection.
Fifty microliters of the collected aerosol spray is injected onto the SEC column for analysis, while 50 mcl of the Kwikpen insulin solution is injected onto the SEC column for control samples.

[5] = aerosolized samples S1, S2 (summary table)
[6] = control, Enbrel diluted 4:1 (10 mg/ml), SEC UV 280 nm

adalimumab
change in the electrophoretic mobility, and hence the molecular weight, post-aerosol vs control [1]: negligible change

etanercept [Enbrel]
Peak 4 [2, 5]: 0.357 and 0.352 | Peak 5 [2, 5]: 5.123 and 3.428 | Peak 4 Peak Area % [2, 6]: 0% | Peak 5 Peak Area % [2, 6]: 0% | dose leading to formation of molecular fragments ([2]; fragments with elution times of 13 and 25 minutes): 4.6% | change in the electrophoretic mobility, and hence the molecular weight, post-aerosol vs control [1]: negligible change

bevacizumab
change in the electrophoretic mobility, and hence the molecular weight, post-aerosol vs control [1]: negligible change

Albuterol sulfate
Cum. % < ([3]; FILTER stage, 10 actuations): 0.00% | Cum. % > ([3]; FILTER stage, 10 actuations): 100.00% | Coarse ([3]; summary of deposition): 22.7 | Fine ([3]; summary of deposition): 3.5 | Mouthpiece ([3]; summary of deposition): 12.2 | Respirable ([3]; summary of deposition): 69.3 | Throat ([3]; summary of deposition): 4.6

Insulin: insulin, Humalog, 200 units/ml, 3 ml kwikpens
Peak 3 [4, 5]: 2.797 and 2.184 | Peak 3 Peak Area % ([4]; control, Insulin from Kwikpen 200 U/ml, SEC): 0% | ejected dose forming a fragment ([4]; fragment eluting at ~25 minutes): 2.5%
